{"source": "paper PMC6751238", "about": "“The first fungal laccase with an alkaline pH optimum obtained by directed evolution and its application in indigo dye decolorization” (AMB Express, 2019)", "proteins": {"B1": {"name": "rLcc9 (Coprinopsis cinerea okayama7#130; E116K/I393T) (protein)", "chain": "QILGPTSTMTVSNIDASPDGFNRPVVAVNGQHPGPLVRANKGDNFRINVVNDLNDPTMLRQTSVHWHGVFQHGTAWADGPDGVTQCPIAQNGESFKYRFNAGNEAGTFWYHSHFGTQYCDGLRGPLVIYDPNDPHRNLYDVDNADTVITLVDWYHLQAPSIEGPALSDATLINGKGRRPGGPETDIAIVNVQRNRRYRFRLVSMSCDPNYKFSIDGHKLTVIEADGQLTEPLMVDEIQIFAGQRYSFVLSANRPVGNYWIRAIPNVGSNNLPNFSSGGINSAILRYAGAPNANPTSTPVTNPVALHESNLHALLNPGAPGGSGPADENIVLQMGLGPAGFEINGVTWANPDSPVMVQIMNGVPPADIVPSGATHTLPRNRVVEVSIPGFELAGPHPFHLHGHAFSVVRSAGSSTYNYENPVRRDVVDVGGASDNVTIRFTTDNPGPWFFHCHIEFHLVLGLAMVFMEAPSDIPSTSPPPPSWSELCPKFESLPASATSIQIVPTP"}, "B2": {"name": "rLcc9 (Coprinopsis cinerea okayama7#130; I393T) (protein)", "chain": "B1 chain with K96E", "notes": "lcc9 cDNA in pPIC9K (EcoRI/NotI), secreted from Pichia pastoris GS115, purified (DEAE-Sepharose); PIE5 = E116K/N229D/I393T"}, "B3": {"name": "rLcc9 (Coprinopsis cinerea okayama7#130) (protein)", "chain": "B1 chain with K96E, T373I", "notes": "as for B2"}, "B4": {"name": "rLcc9 (Coprinopsis cinerea okayama7#130; E116K) (protein)", "chain": "B1 chain with T373I"}, "B5": {"name": "rLcc9 (Coprinopsis cinerea okayama7#130; N229D) (protein)", "chain": "B1 chain with K96E, N209D, T373I", "notes": "as for B2"}, "B6": {"name": "rLcc9 (Coprinopsis cinerea okayama7#130; I393T/N229D) (protein)", "chain": "B1 chain with K96E, N209D"}, "B7": {"name": "rLcc9 (Coprinopsis cinerea okayama7#130; E116K/I393T/N229D) (protein)", "chain": "B1 chain with N209D", "notes": "as for B2"}, "B8": {"name": "rLcc9 (Coprinopsis cinerea okayama7#130; E116K/N229D) (protein)", "chain": "B1 chain with N209D, T373I"}}, "key": {"purified protein [1]": {"substrate": "COc1ccccc1O", "test": "purified protein"}, "purified protein [2]": {"substrate": "COc1cccc(OC)c1O", "test": "purified protein", "format": "biochemical, Coprinopsis cinerea"}, "[3]": {"conditions": "pH 6.5, 70 °C as printed in table (text says 60 °C), pH 6.5"}, "[4]": {"conditions": "PIE5, pH 8.5, 60 °C, pH 8.5, 60.0 °C"}}, "note": "Where a chain is given by its changes, count along the chain named. Names and notes keep the numbering of the source.", "data": [{"protein": "B1", "values": [{"measurement": "Km", "setting": "purified protein [1]; pH 6.5, 60 °C, pH 6.5, 60.0 °C", "value": 110, "unit": "µM"}, {"measurement": "kcat", "setting": "purified protein [1]; pH 6.5, 60 °C, pH 6.5, 60.0 °C", "value": 46, "unit": "s⁻¹"}, {"measurement": "kcat/Km", "setting": "purified protein [1]; pH 6.5, 60 °C, pH 6.5, 60.0 °C", "value": 390000, "unit": "M⁻¹ s⁻¹"}]}, {"protein": "B2", "values": [{"measurement": "Km", "setting": "purified protein [2]; pH 7.0, 60 °C", "value": 1200, "unit": "µM"}, {"measurement": "kcat", "setting": "purified protein [2]; pH 7.0, 60 °C", "value": 49.2, "unit": "s⁻¹"}, {"measurement": "kcat/Km", "setting": "purified protein [2]; pH 7.0, 60 °C", "value": 38000, "unit": "M⁻¹ s⁻¹"}, {"measurement": "Km", "setting": "purified protein [1]; pH 7.0, 60 °C, pH 7.0, 60.0 °C", "value": 140, "unit": "µM"}, {"measurement": "kcat", "setting": "purified protein [1]; pH 7.0, 60 °C, pH 7.0, 60.0 °C", "value": 83.9, "unit": "s⁻¹"}, {"measurement": "kcat/Km", "setting": "purified protein [1]; pH 7.0, 60 °C, pH 7.0, 60.0 °C", "value": 570000, "unit": "M⁻¹ s⁻¹"}]}, {"protein": "B3", "values": [{"measurement": "Km", "setting": "purified protein [2]; pH 6.5, 60 °C", "value": 2300, "unit": "µM"}, {"measurement": "kcat", "setting": "purified protein [2]; pH 6.5, 60 °C", "value": 69.4, "unit": "s⁻¹"}, {"measurement": "kcat/Km", "setting": "purified protein [2]; pH 6.5, 60 °C", "value": 30000, "unit": "M⁻¹ s⁻¹"}, {"measurement": "Km", "setting": "purified protein [1]; [3]", "value": 90, "unit": "µM"}, {"measurement": "kcat", "setting": "purified protein [1]; [3]", "value": 22.8, "unit": "s⁻¹"}, {"measurement": "kcat/Km", "setting": "purified protein [1]; [3]", "value": 250000, "unit": "M⁻¹ s⁻¹"}]}, {"protein": "B4", "values": [{"measurement": "Km", "setting": "purified protein [1]; pH 6.5, 60 °C, pH 6.5, 60.0 °C", "value": 320, "unit": "µM"}, {"measurement": "kcat", "setting": "purified protein [1]; pH 6.5, 60 °C, pH 6.5, 60.0 °C", "value": 85.8, "unit": "s⁻¹"}, {"measurement": "kcat/Km", "setting": "purified protein [1]; pH 6.5, 60 °C, pH 6.5, 60.0 °C", "value": 250000, "unit": "M⁻¹ s⁻¹"}]}, {"protein": "B5", "values": [{"measurement": "Km", "setting": "purified protein [2]; pH 8.0, 60 °C", "value": 2600, "unit": "µM"}, {"measurement": "kcat", "setting": "purified protein [2]; pH 8.0, 60 °C", "value": 66.2, "unit": "s⁻¹"}, {"measurement": "kcat/Km", "setting": "purified protein [2]; pH 8.0, 60 °C", "value": 25000, "unit": "M⁻¹ s⁻¹"}, {"measurement": "Km", "setting": "purified protein [1]; pH 8.0, 60 °C, pH 8.0, 60.0 °C", "value": 370, "unit": "µM"}, {"measurement": "kcat", "setting": "purified protein [1]; pH 8.0, 60 °C, pH 8.0, 60.0 °C", "value": 87.3, "unit": "s⁻¹"}, {"measurement": "kcat/Km", "setting": "purified protein [1]; pH 8.0, 60 °C, pH 8.0, 60.0 °C", "value": 230000, "unit": "M⁻¹ s⁻¹"}]}, {"protein": "B6", "values": [{"measurement": "Km", "setting": "purified protein [1]; pH 8.0, 60 °C, pH 8.0, 60.0 °C", "value": 340, "unit": "µM"}, {"measurement": "kcat", "setting": "purified protein [1]; pH 8.0, 60 °C, pH 8.0, 60.0 °C", "value": 82.5, "unit": "s⁻¹"}, {"measurement": "kcat/Km", "setting": "purified protein [1]; pH 8.0, 60 °C, pH 8.0, 60.0 °C", "value": 230000, "unit": "M⁻¹ s⁻¹"}]}, {"protein": "B7", "values": [{"measurement": "Km", "setting": "purified protein [2]; PIE5, pH 8.0, 60 °C", "value": 5700, "unit": "µM"}, {"measurement": "kcat", "setting": "purified protein [2]; PIE5, pH 8.0, 60 °C", "value": 43.5, "unit": "s⁻¹"}, {"measurement": "kcat/Km", "setting": "purified protein [2]; PIE5, pH 8.0, 60 °C", "value": 7500, "unit": "M⁻¹ s⁻¹"}, {"measurement": "Km", "setting": "purified protein [1]; [4]", "value": 330, "unit": "µM"}, {"measurement": "kcat", "setting": "purified protein [1]; [4]", "value": 62.9, "unit": "s⁻¹"}, {"measurement": "kcat/Km", "setting": "purified protein [1]; [4]", "value": 180000, "unit": "M⁻¹ s⁻¹"}]}, {"protein": "B8", "values": [{"measurement": "Km", "setting": "purified protein [1]; pH 8.0, 60 °C, pH 8.0, 60.0 °C", "value": 340, "unit": "µM"}, {"measurement": "kcat", "setting": "purified protein [1]; pH 8.0, 60 °C, pH 8.0, 60.0 °C", "value": 75.4, "unit": "s⁻¹"}, {"measurement": "kcat/Km", "setting": "purified protein [1]; pH 8.0, 60 °C, pH 8.0, 60.0 °C", "value": 210000, "unit": "M⁻¹ s⁻¹"}]}]}
